This passage reports Kd results from patent US20240043506A1 (GARVAN INSTITUTE OF MEDICAL RESEARCH, published 2024).

The target in experiment [1] is T1, SARS-CoV-2 S protein RBD (residues 319-541 of the S protein), soluble, with C-terminal Avitag and His tag (SARS-CoV-2, UniProt P0DTC2 319-541). The experiment is described as follows: biolayer interferometry (BLItz), […].
Experiment [2] has as its target T1, SARS-CoV-2 S protein RBD (residues …). The experiment is described as follows: biolayer interferometry (BLItz), […], global fit.

Changes are numbered by the printed parent chain. In names and notes the source's numbering stands.

B1: C12K-D12 (antibody, V domains shown)
VH: EVQLLESGGGLVQPGGSLRLSCAASGFRISDEDMGWVRQAPGKGLEWVSYIDNAGASTYYADSVKGRFTISRDNSKNTLYLQMNSLRAEDTAVYYCAKSLGPNPEFDYWGQGTLVTVSS
VL: DIQMTQSPSSLSASVGDRVTITCRASQSISSYLNWYQQKPGKAPKLLIYYASNLQSGVPSRFSGSGSGTDFTLTISSLQPEDFATYYCQQGLGMPITFGQGTKVEIK
In turn, B1 showed a Kd in experiment [1] of 1 nM.

B2: G1K-C4 (antibody, V domains shown)
VH: EVQLLESGGGLVQPGGSLRLSCAASGFRFDYEDMGWVRQAPGKGLEWVSSIDSHGASTYYADSVKGRFTISRDNSKNTLYLQMNSLRAEDTAVYYCAKYSHSVSYGPFDYWGQGTLVTVSS
VL: B1 VL with S28Y, S31Y, Y32D, Y50S, N53S, G91T, L92N, G93T, M94Y, I96Q
Molecule B2 showed a Kd in experiment [2] of 59 nM.

B3: C12K-G10 (antibody, V domains shown)
VH: B1 VH with G101N, P102S, N103L, P104G, E105V
VL: B1 VL with S30Y, S31D, N53A
In the case of B3, in experiment [1], the affinity, expressed as Kd, was 0.788 nM.
